Data taken from US9963506B2, “Human-mouse chimeric anti-CD147 antibody with non-fucosylated glycosylation” (Fourth Military Medical University, priority 2015, dated 2018).

Target: T1, CD147^+ A549 cells (Homo sapiens, UniProt P35613)
T1 construct: endogenous in cells; host or cells: A549 (human lung cancer cell line)
T1 sequence (P35613 22-269 isoform P35613-2 limits assumed): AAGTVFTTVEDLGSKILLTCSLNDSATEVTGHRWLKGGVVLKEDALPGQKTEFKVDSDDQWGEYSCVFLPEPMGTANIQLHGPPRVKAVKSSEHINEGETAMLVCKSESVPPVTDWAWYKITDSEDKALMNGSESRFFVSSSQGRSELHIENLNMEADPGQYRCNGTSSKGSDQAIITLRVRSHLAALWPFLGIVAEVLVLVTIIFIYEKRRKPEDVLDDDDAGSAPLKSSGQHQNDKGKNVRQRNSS
Experiment: Antigen-binding activity by flow cytometry
Protocol: The antibody concentration is 0.001 μg/mL, 0.01 μg/mL, 0.1 μg/mL, 1 μg/ml and 10 μg/mL, respectively.
A549 cells (10^6 cells) were incubated with the Metuzumab (HcHAb18) and cHAb18 antibody, respectively, in PBS with 0.1% BSA at 4° C. for 1 h. After three washes in PBS with 0.1% BSA, cells were incubated with the FITC-conjugated Rabbit anti-Human IgG Fc Secondary Antibody (Pierce) at 4° C. in the dark for 45 min. Cells were then washed three times and suspended in PBS for analysis using a FACS Calibur flow cytometer (BD, New Jersey, U.S.). Relative antigen expression is reported as median fluorescence intensity (MFI).

- CD147-binding ability, Metuzumab compared with cHAb18 (FIG. 4): similar
- Binding to CD147^+ A549 cells (FIG. 4, 0.001-10 μg/mL): bound
Substance: cHAb18: human-mouse chimeric anti-CD147 antibody, variable domains from HAb18, human IgG1 constant domains, fucosylated (CHO K1)
